We go through three molecules from publication PMC4974056, “The proposed channel-enzyme transient receptor potential melastatin 2 does not possess ADP ribose hydrolase activity” (eLife, 2016).

Where “and” joins values, the source holds several entries; their conditions need not be identical. Identical values can stand only once. Like-named read-outs stand apart in the source and are kept apart here.

On the set-up of data set [1]: method as in Perraud et al., 2001, 2003. Conditions: ref Perraud et al., 2001, 2003, cited from earlier work.
Data set [2] can be described thus: Solubility of recombinant proteins expressed in E.coli. The data set is classed as physicochemical. Particulars: for Soluble: expressed in E.coli, Table 1. The protocol:
The soluble proteins (NUDT9 and Chi2) were expressed and purified as previously described for mitochondrial NUDT9 ([Tóth et al., 2014]). In brief, bacterial cultures were grown at 37°C in Luria-Bertani medium supplemented with the appropriate antibiotic and induced with 1 mM isopropyl-β-D-1-thiogalactopyranoside (IPTG) upon reaching OD600 of ~0.7. After 3 hr of incubation, cells were harvested and lysed with sonication in 20 mM Tris (pH 8.5 with HCl) / 200 mM NaCl. The cleared supernatant was incubated with Ni-Sepharose 6 Fast Flow resin (GE Healthcare Hungary, Hungary) for 3 hr under gentle rotation. The resin was then washed with lysis buffer supplemented with 20 mM imidazole, and the protein eluted with a buffer containing 20 mM Tris (pH 8.5 with HCl), 100 mM NaCl, and 400 mM imidazole.
Chi3S, Chi4S and NUDT9H were little soluble to insoluble when expressed at 37°C, the majority of the proteins ending up in inclusion bodies, but gave tractable (~1–5%) soluble fractions when induced with 0.1 mM IPTG at 25°C overnight. NUDT9H was then purified as NUDT9. Chi3S and Chi4S were purified using Strep-Tactin chromatography following the manufacturer’s instructions (IBA GmbH, Göttingen, Germany).

A short description of data set [3]: Enzymatic activity assay using colorimetric detection of inorganic phosphate (Pi assay, coupled to alkaline phosphatase). In kind it is biochemical. Conditions: 5 or 50 nM protein co-applied with 1 mM ADPR and AP, 30 min, pH 6.5-9.0, 37°C or RT. The procedure:
The ADPRase activities of the same proteins were additionally tested with a more sensitive assay based on colorimetric detection of Pi (Pi assay) liberated from both ADPRase products AMP and R5P by co-applied alkaline phosphatase (AP) ([Rafty et al., 2002]). AP liberates Pi from AMP and R5P, but not from intact ADPR: thus, Pi is produced from hydrolyzed ADPR at a molar ratio of 1:2. In brief, 150-μl reaction volumes containing 5 or 50 nM purified protein, 5–6 U bovine AP, 1 mM Na-ADPR, 16 mM MgCl2, and 50 mM reaction buffer at various pH values (MES 6.5, HEPES 7.1, Tris 8.5, and Tris 9.0) were incubated for 30 min at either 37°C or room temperature. The reaction was stopped and Pi visualized by adding 850 μl coloring solution (6:1 vol/vol ratio mixture of 0.42% ammonium molybdate tetrahydrate in 1N H2SO4 and 10% L-ascorbic acid) followed by incubation for 20 min at 45°C. Optical density was then measured at 820 nm (NanoPhotometer P300, Implen GmbH, Munich, Germany). Coloring solution was freshly made, and standard curve (0.050–2 mM KH2PO4) obtained, daily. […]
Molecular turnover rates (kcat) for NUDT9 were calculated from the [Pi] released in samples containing 5 nM NUDT9, in which [ADPR] remained >0.9 mM (i.e., saturating [[Perraud et al., 2003]]) throughout the 30-min incubation period, using the equation kcat = 0.5[Pi]released/5 nM/1800 s.

Data set [4] in a line: Enzymatic (ADPRase) activity assay using thin-layer chromatography (TLC). The data set is classed as biochemical. Particulars: for ADPRase activity (conversion of ADPR into AMP and R5P, TLC): 1 μM protein, 16 mM Mg2+, 2-hr incubation, pH 6.5, 7.1 and 8.5, absence or presence of 100 mM NaCl; for ADPRase activity (conversion of ADPR into AMP and R5P, TLC) / kcat: 10 mM ADPR, room temperature; for Enzyme: Table 1 summary of ADPRase activity; for kcat: 0.5 μM protein. The procedure: (§1) ADPRase activities of mitochondrial NUDT9, NUDT9H, and the purified chimeric constructs (Chi2, Chi3S, Chi4S) were quantitated by densitometric detection of the AMP product on TLC sheets. The 20-μl reaction mixtures contained 0.1, 0.5 or 1 μM purified protein, 10 mM Na-ADPR (Sigma-Aldrich, St. Louis, MO, USA), 16 mM MgCl2, and 50 mM reaction buffer (RB). The reaction buffers used were: 50 mM MES, pH 6.5 with NaOH (RB1); 50 mM HEPES, pH 7.1 with NaOH (RB2); 50 mM Tris, pH 8.5 with HCl (RB3); RB1 + 100 mM NaCl (RB4); RB2 + 100 mM NaCl (RB5), and RB3 + 100 mM NaCl (RB6). For the enzyme kinetics experiments on NUDT9 and Chi2, aliquots from the reaction mixtures were collected at the indicated time points; 3 independent experiments were performed for both proteins and each condition, and data are presented as mean ± SEM. All incubations were at room temperature (~25°C). For TLC, 1-μl aliquots of reaction mixtures were placed on Polygram SIL G/UV254 plates (Macherey-Nagel, Düren, Germany), dried and developed in 0.2 M NH4HCO3 in ethanol:water 7:3 (vol/vol). Nucleotides were visualized under UV light. Densitometry of nucleotide intensities was done using ImageJ software.

The next data set deals with T5L-TRPM2-Chi2 (Homo sapiens, UniProt O94759+Q9BW91, G984L/INS985E/Y985D, form not given). The experiment in a line: Excised inside-out patch-clamp recordings, ADPR-dependent channel activation. The data set is classed as cell-based. Conditions: current in 1 μM ADPR divided by that in 32 μM ADPR; compared to TRPM2. The text has this:
The noninactivating TRPM5-like pore mutant of TRPM2 (T5L-TRPM2) was contained in the pGEMHE vector ([Tóth and Csanády, 2012]). The NUDT9H domain of TRPM2 was replaced by Chi2A, Chi3 or Chi4 using the native BlpI-site upstream of the domain and an XbaI-site downstream of the Stop-codon in each chimeric construct. Single-base mutations to generate Stop-codons immediately upstream of the hexahistidine tags of Chi3 and Chi4 were then introduced (QuickChange II, Agilent Technologies, Santa Clara, CA, USA), yielding TRPM2-Chi3 and TRPM2-Chi4; TRPM2-Chi2 lacked a His-tag because it was derived from Chi2A.
(§2) Oocytes isolated from anaesthetized Xenopus laevis were digested with collagenase, injected with 10–70 ng cRNA, and stored at 18°C. Recordings were done 2–3 days after injection.
The tip of the patch pipette was filled to ~1 cm height with 140 mM Na-gluconate, 2 mM Mg-gluconate2, 10 mM HEPES (pH 7.4 with NaOH); free [Ca^2+] ~4 μM. The pipette electrode was placed into a 140-mM NaCl-based solution carefully layered on top. […] Macroscopic TRPM2 currents were recorded at 25°C at a membrane potential of −20 mV. […]
Dose dependence of ADPR-induced current activation, expressed as the ratio of mean macroscopic currents observed in the presence of various test [ADPR] […]
On the technique in general: Patch clamp records ionic current or voltage across a cell membrane.

Data set [5] is described as follows: Spontaneous ADPR degradation at basic pH (TLC and Pi assay, no ADPRase). The data set is classed as physicochemical. The procedure:
as §1
The ADPRase activities of the same proteins were additionally tested with a more sensitive assay based on colorimetric detection of Pi (Pi assay) liberated from both ADPRase products AMP and R5P by co-applied alkaline phosphatase (AP) ([Rafty et al., 2002]). AP liberates Pi from AMP and R5P, but not from intact ADPR: thus, Pi is produced from hydrolyzed ADPR at a molar ratio of 1:2. In brief, 150-μl reaction volumes containing 5 or 50 nM purified protein, 5–6 U bovine AP, 1 mM Na-ADPR, 16 mM MgCl2, and 50 mM reaction buffer at various pH values (MES 6.5, HEPES 7.1, Tris 8.5, and Tris 9.0) were incubated for 30 min at either 37°C or room temperature. The reaction was stopped and Pi visualized by adding 850 μl coloring solution (6:1 vol/vol ratio mixture of 0.42% ammonium molybdate tetrahydrate in 1N H2SO4 and 10% L-ascorbic acid) followed by incubation for 20 min at 45°C. Optical density was then measured at 820 nm (NanoPhotometer P300, Implen GmbH, Munich, Germany). Coloring solution was freshly made, and standard curve (0.050–2 mM KH2PO4) obtained, daily. Reactions with 1 mM AMP or R5P (instead of ADPR) served as positive controls. All reagents were from Sigma-Aldrich.

The target in data set [6] is T1, T5L-TRPM2 (Homo sapiens, UniProt O94759, G984L/INS985E/Y985D). More on the design: method as in Tóth and Csanády, 2012. Conditions: previously established; ref Tóth and Csanády, 2012; read-out: half-saturating concentration; cited from earlier work.
In data set [7] the target is T1, T5L-TRPM2. Put plainly: Excised inside-out patch-clamp recordings, ADPR-dependent channel activation. The data set is classed as cell-based. The procedure:
as §2
The tip of the patch pipette was filled to ~1 cm height with 140 mM Na-gluconate, 2 mM Mg-gluconate2, 10 mM HEPES (pH 7.4 with NaOH); free [Ca^2+] ~4 μM. The pipette electrode was placed into a 140-mM NaCl-based solution carefully layered on top. Bath solution contained 140 mM Na-gluconate, 2 mM Mg-gluconate2, 10 mM HEPES (pH 7.1 with NaOH), and either 1 mM EGTA (to obtain 'zero' (~8 nM) Ca^2+) or 1 mM Ca-gluconate2 (to obtain 125 μM free Ca^2+) ([Csanády and Törocsik, 2009]). Na-ADPR was used at final concentrations of 0.32, 1, 3.2, 10, 32, 100, or 1000 μM, and the Na^+ salt of ε-ADPR at 100 μM. Macroscopic TRPM2 currents were recorded at 25°C at a membrane potential of −20 mV. Currents were amplified, filtered at 2 kHz (Axopatch 200B), digitized at 10 kHz (Digidata 1322A), and stored to disk (Pclamp9, Molecular Devices, Sunnyvale, CA, USA).
Dose dependence of ADPR-induced current activation, expressed as the ratio of mean macroscopic currents observed in the presence of various test [ADPR] (I) and 32 (or 100) μM ADPR (Imax) in the same patch, was fitted to the Hill equation (I/Imax = [ADPR]^n/(K^n+[ADPR]^n). Dose dependence of ADPR-activation in the presence of 100 μM ε-ADPR was expressed as the ratio of the currents observed in the presence of various test [ADPR] + 100 μM ε-ADPR (I) and 100 μM ADPR alone (Imax) in the same patch, and was fitted to the Hill equation substituting K' = K(1+[ε-ADPR]/KI) instead of K (K and n fixed to their control values). Macroscopic current decay time courses following removal of ADPR or Ca^2+ were fitted by single exponentials using the method of least squares.

T1 sequence (O94759 whole entry, stated change not applied): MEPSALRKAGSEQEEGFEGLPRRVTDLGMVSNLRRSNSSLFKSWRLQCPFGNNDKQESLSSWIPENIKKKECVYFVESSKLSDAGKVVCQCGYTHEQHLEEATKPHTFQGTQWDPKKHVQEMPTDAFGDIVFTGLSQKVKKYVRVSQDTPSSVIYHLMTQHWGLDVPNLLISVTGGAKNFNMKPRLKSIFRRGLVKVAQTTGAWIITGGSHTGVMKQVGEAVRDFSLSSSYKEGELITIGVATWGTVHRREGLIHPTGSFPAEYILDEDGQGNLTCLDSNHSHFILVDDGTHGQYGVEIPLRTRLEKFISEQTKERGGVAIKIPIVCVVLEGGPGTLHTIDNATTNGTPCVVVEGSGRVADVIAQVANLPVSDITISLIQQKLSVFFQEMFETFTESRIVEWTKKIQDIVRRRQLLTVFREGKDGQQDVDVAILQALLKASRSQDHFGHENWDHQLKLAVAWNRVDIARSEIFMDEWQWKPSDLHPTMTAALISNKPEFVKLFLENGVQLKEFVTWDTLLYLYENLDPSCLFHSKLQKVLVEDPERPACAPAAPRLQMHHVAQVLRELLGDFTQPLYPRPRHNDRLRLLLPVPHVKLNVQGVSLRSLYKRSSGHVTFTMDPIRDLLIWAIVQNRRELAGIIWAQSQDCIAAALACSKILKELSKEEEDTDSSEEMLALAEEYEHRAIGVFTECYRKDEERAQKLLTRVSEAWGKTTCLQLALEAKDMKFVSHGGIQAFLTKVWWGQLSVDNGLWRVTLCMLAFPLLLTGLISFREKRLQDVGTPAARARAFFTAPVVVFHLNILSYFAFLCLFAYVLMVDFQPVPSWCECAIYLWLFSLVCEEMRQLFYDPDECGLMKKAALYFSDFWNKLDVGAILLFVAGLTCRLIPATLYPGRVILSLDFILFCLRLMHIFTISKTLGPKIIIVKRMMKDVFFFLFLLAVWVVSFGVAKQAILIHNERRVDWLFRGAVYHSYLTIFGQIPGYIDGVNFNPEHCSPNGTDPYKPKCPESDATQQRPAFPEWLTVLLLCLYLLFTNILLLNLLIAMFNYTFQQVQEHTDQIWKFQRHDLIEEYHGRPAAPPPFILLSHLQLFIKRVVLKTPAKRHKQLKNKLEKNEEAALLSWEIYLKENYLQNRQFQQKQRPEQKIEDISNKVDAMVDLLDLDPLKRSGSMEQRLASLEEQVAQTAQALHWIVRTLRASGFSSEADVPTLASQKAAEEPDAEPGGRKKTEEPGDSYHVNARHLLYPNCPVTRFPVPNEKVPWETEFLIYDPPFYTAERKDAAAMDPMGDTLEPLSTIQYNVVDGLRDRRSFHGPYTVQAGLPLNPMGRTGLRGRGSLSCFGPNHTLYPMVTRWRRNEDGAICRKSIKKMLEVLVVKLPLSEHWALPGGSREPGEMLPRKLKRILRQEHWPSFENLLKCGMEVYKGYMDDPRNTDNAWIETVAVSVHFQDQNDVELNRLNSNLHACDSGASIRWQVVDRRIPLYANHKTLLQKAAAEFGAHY
T5L-TRPM2-Chi2, sequence (O94759 1-1353, stated change not applied, one chain of several): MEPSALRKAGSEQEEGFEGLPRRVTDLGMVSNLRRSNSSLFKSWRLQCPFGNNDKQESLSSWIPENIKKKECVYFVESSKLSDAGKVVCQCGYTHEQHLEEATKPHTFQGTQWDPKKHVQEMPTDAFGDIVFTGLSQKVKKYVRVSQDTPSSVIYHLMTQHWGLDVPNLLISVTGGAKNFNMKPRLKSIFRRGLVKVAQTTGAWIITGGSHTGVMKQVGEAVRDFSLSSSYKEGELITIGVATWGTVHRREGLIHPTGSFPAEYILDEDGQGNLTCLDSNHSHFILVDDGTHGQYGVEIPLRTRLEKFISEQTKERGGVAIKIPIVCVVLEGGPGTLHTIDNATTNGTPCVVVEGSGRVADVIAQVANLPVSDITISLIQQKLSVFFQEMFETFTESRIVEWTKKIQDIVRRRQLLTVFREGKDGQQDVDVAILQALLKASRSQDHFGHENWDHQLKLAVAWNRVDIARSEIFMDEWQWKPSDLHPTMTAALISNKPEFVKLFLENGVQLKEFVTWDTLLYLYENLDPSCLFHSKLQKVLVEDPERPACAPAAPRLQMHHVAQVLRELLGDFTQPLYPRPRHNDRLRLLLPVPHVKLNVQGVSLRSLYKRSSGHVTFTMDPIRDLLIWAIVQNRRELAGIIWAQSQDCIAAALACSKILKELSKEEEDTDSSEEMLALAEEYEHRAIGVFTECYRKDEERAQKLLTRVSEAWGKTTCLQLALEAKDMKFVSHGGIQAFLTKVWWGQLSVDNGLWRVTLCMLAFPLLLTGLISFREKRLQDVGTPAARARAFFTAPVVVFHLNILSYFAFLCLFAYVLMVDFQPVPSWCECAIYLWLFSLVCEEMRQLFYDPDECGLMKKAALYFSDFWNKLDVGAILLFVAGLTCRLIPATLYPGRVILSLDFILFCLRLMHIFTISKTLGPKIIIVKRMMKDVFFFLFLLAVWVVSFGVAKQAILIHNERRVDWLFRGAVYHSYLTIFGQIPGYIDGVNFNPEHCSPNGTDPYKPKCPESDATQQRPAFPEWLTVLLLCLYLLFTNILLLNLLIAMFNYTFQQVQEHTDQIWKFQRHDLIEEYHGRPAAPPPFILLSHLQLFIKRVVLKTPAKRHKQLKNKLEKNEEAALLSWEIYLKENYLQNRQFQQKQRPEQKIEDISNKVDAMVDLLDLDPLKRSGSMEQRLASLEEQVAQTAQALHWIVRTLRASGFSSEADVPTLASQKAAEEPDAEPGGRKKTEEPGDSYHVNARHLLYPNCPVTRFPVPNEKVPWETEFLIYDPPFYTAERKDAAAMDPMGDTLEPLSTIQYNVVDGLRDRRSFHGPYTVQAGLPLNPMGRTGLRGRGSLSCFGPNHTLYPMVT

By kcat is commonly meant the maximal rate divided by the concentration of active sites. For “NUDT9H: isolated C-terminal cytosolic NUDT9-homology domain of TRPM2, recombinant, hexahistidine tag”, the reported turnover rate in data set [1] (isolated NUDT9H) is ~ 0.1 s^-1. Also, the kcat in data set [1] (pH 9 and 37°C) is recorded as ~ 0.06 s^-1. Further, in data set [1], the “reported enzymatic activity, lower than that of NUDT9” value is reported as “about 100 fold”. In addition, in data set [2] (4°C), the “stability of purified soluble preparation” value is “precipitated overnight at 4 °C”. The Soluble result in data set [2] is “No^¶”. Besides, in data set [3], the Pi release entry is “did not result in any significant Pi release”. For the same molecule, in data set [4], the “ADPRase activity (conversion of ADPR into AMP and R5P, TLC)” value was “failed to hydrolyze the nucleotide”; the Enzyme entry is listed as “No”.

Take `Nc1ncnc2c1ncn2C1OC(COP(=O)(O)OP(=O)(O)OCC2OC(O)C(O)C2O)C(O)C1O` (centres unmarked) [ADPR, adenosine 5'-diphosphoribose]: the “Fractional activation by 1 μM ADPR” value at T5L-TRPM2-Chi2 is on record as “reduced”. Further, the “spontaneous hydrolysis of applied ADPR (Pi assay)” value in data set [5] (1 mM ADPR, 30 min, with AP, with or without Chi4S or NUDT9H) was ~ 1%. In addition, the spontaneous degradation is recorded as ~ 0.3% in data set [5] (25°C and pH 8.5, 20 min); ~ 2% in data set [5] (25°C, pH 8.5, 2 hr); ~ 1% in data set [5] (37°C and pH 9, 30 min). The “time constant for spontaneous ADPR hydrolysis” value in data set [5] (25°C and pH 8.5, assuming exponential decay) is given as ~ 100 hr. For the same molecule, in data set [5] (25°C, pH 8.5), the “decay time constant of spontaneous degradation” value is listed as “about 100 h”. In addition, the ADPR degraded spontaneously in data set [5] (25°C, pH 8.5, 24 hr) was ~ 20%. The “AMP which forms spontaneously” value in data set [5] (20 min, pH 8.5, 10 mM ADPR) is reported as ~ 30 μM. Moreover, the stability entry in data set [5] (neutral or slightly acidic pH) was “inherently stable”. Further, the EC50 was 1000 nM on T5L-TRPM2 [6] and 1300 ± 100 nM at T5L-TRPM2 [7] (inside-out patches from Xenopus laevis oocytes, saturating Ca2+, −20 mV, Hill fit (Figure 7H), read-out: K1/2 for ADPR-induced current activation). In addition, the “n (Hill slope for ADPR binding)” value at T5L-TRPM2 [7] (Figure 8B) came to 1.3±0.1.

B1: NUDT9: soluble, Mg2+-dependent mitochondrial ADPR pyrophosphatase, recombinant, C-terminal hexahistidine tag (protein)
chain: ENSHNKARTSPYPGSKVERSQVPNEKVGWLVEWQDYKPVEYTAVSVLAGPRWADPQISESNFSPKFNEKDGHVERKSKNGLYEIENGRPRNPAGRTGLVGRGLLGRWGPNHAADPIITRWKRDSSGNKIMHPVSGKHILQFVAIKRKDCGEWAIPGGMVDPGEKISATLKREFGEEALNSLQKTSAEKREIEEKLHKLFSQDHLVIYKGYVDDPRNTDNAWMETEAVNYHDETGEIMDNLMLEAGDDAGKVKWVDINDKLKLYASHSQFIKLVAEKRDAHWSEDSEADCHAL
modifications: left off: His6, C-terminal, kept
notes: soluble, Mg2+-dependent mitochondrial ADPR pyrophosphatase, recombinant, C-terminal hexahistidine tag
With B1, the kcat in data set [1] (previously reported values) is ~ 8 s^-1; in data set [4] (pH 6.5 (RB1)), 6.4 s⁻¹; in data set [4] (pH 7.1 (RB2)), 7.6 s⁻¹; in data set [4] (pH 8.5 (RB3)) it was 9 s⁻¹ and 9.0 s⁻¹. For the same molecule, the Soluble entry in data set [2] is listed as “Yes”. For the same molecule, the “ADPRase activity (conversion of ADPR into AMP and R5P, TLC)” value in data set [4] is listed as “active ADPRases”. Moreover, in data set [4] (TLC kinetics), the “decrease of kcat from pH 8.5 to 6.5” value was ~ 1.4 fold. For the same molecule, the Enzyme entry in data set [4] was “Yes”.
